# Data published in patent US20140274782A1, “AFFINITY REAGENTS AND METHODS FOR DETECTION, PURIFICATION, AND PROTEOMIC ANALYSIS OF METHYLATED PROTEINS” (The Board of Trustees of the Leland Stanford Junior …, priority 2013, published 2014).
# B1: GIGYF2 (protein, UniProt Q6Y7W6 2-1299, looked up)
# GRB10-interacting GYF protein …: AAETQTLNFGPEWLRALSSGGSITSPPLSPALPKYKLADYRYGREEMLALFLKDNKIPSDLLDKEFLPILQEEPLPPLALVPFTEEEQRNFSMSVNSAAVLRLTGRGGGGTVVGAPRGRSSSRGRGRGRGECGFYQRSFDEVEGVFGRGGGREMHRSQSWEERGDRRFEKPGRKDVGRPNFEEGGPTSVGRKHEFIRSESENWRIFREEQNGEDEDGGWRLAGSRRDGERWRPHSPDGPRSAGWREHMERRRRFEFDFRDRDDERGYRRVRSGSGSIDDDRDSLPEWCLEDAEEEMGTFDSSGAFLSLKKVQKEPIPEEQEMDFRPVDEGEECSDSEGSHNEEAKEPDKTNKKEGEKTDRVGVEASEETPQTSSSSARPGTPSDHQSQEASQFERKDEPKTEQTEKAEEETRMENSLPAKVPSRGDEMVADVQQPLSQIPSDTASPLLILPPPVPNPSPTLRPVETPVVGAPGMGSVSTEPDDEEGLKHLEQQAEKMVAYLQDSALDDERLASKLQEHRAKGVSIPLMHEAMQKWYYKDPQGEIQGPFNNQEMAEWFQAGYFTMSLLVKRACDESFQPLGDIMKMWGRVPFSPGPAPPPHMGELDQERLTRQQELTALYQMQHLQYQQFLIQQQYAQVLAQQQKAALSSQQQQQLALLLQQFQTLKMRISDQNIIPSVTRSVSVPDTGSIWELQPTASQPTVWEGGSVWDLPLDTTTPGPALEQLQQLEKAKAAKLEQERREAEMRAKREEEERKRQEELRRQQEEILRRQQEEERKRREEEELARRKQEEALRRQREQEIALRRQREEEERQQQEEALRRLEERRREEEERRKQEELLRKQEEEAAKWAREEEEAQRRLEENRLRMEEEAARLRHEEEERKRKELEVQRQKELMRQRQQQQEALRRLQQQQQQQQLAQMKLPSSSTWGQQSNTTACQSQATLSLAEIQKLEEERERQLREEQRRQQRELMKALQQQQQQQQQKLSGWGNVSKPSGTTKSLLEIQQEEARQMQKQQQQQQQHQQPNRARNNTHSNLHTSIGNSVWGSINTGPPNQWASDLVSSIWSNADTKNSNMGFWDDAVKEVGPRNSTNKNKNNASLSKSVGVSNRQNKKVEEEEKLLKLFQGVNKAQDGFTQWCEQMLHALNTANNLDVPTFVSFLKEVESPYEVHDYIRAYLGDTSEAKEFAKQFLERRAKQKANQQRQQQQLPQQQQQQPPQQPPQQPQQQDSVWGMNHSTLHSVFQTNQSNNQQSNFEAVQSGKKKKKQKMVRADPSLLGFSVNASSERLNMGEIETLDDY
# B2: GNB1L (protein, UniProt Q9BYB4 1-327, looked up)
# Guanine nucleotide-binding …: MTAPCPPPPPDPQFVLRGTQSPVHALHFCEGAQAQGRPLLFSGSQSGLVHIWSLQTRRAVTTLDGHGGQCVTWLQTLPQGRQLLSQGRDLKLCLWDLAEGRSAVVDSVCLESVGFCRSSILAGGQPRWTLAVPGRGSDEVQILEMPSKTSVCALKPKADAKLGMPMCLRLWQADCSSRPLLLAGYEDGSVVLWDVSEQKVCSRIACHEEPVMDLDFDSQKARGISGSAGKALAVWSLDWQQALQVRGTHELTNPGIAEVTIRPDRKILATAGWDHRIRVFHWRTMQPLAVLAFHSAAVQCVAFTADGLLAAGSKDQRISLWSLYPRA
# B3: TOP1 (protein, UniProt P11387 2-765, looked up)
# DNA topoisomerase 1: SGDHLHNDSQIEADFRLNDSHKHKDKHKDREHRHKEHKKEKDREKSKHSNSEHKDSEKKHKEKEKTKHKDGSSEKHKDKHKDRDKEKRKEEKVRASGDAKIKKEKENGFSSPPQIKDEPEDDGYFVPPKEDIKPLKRPRDEDDADYKPKKIKTEDTKKEKKRKLEEEEDGKLKKPKNKDKDKKVPEPDNKKKKPKKEEEQKWKWWEEERYPEGIKWKFLEHKGPVFAPPYEPLPENVKFYYDGKVMKLSPKAEEVATFFAKMLDHEYTTKEIFRKNFFKDWRKEMTNEEKNIITNLSKCDFTQMSQYFKAQTEARKQMSKEEKLKIKEENEKLLKEYGFCIMDNHKERIANFKIEPPGLFRGRGNHPKMGMLKRRIMPEDIIINCSKDAKVPSPPPGHKWKEVRHDNKVTWLVSWTENIQGSIKYIMLNPSSRIKGEKDWQKYETARRLKKCVDKIRNQYREDWKSKEMKVRQRAVALYFIDKLALRAGNEKEEGETADTVGCCSLRVEHINLHPELDGQEYVVEFDFLGKDSIRYYNKVPVEKRVFKNLQLFMENKQPEDDLFDRLNTGILNKHLQDLMEGLTAKVFRTYNASITLQQQLKELTAPDENIPAKILSYNRANRAVAILCNHQRAPPKTFEKSMMNLQTKIDAKKEQLADARRDLKSAKADAKVMKDAKTKKVVESKKKAVQRLEEQLMKLEVQATDREENKQIALGTSKLNYLDPRITVAWCKKWGVPIEKIYNKTQREKFAWAIDMADEDYEF
# B4: FUS (protein, UniProt P35637 1-526, looked up)
# RNA-binding protein FUS: MASNDYTQQATQSYGAYPTQPGQGYSQQSSQPYGQQSYSGYSQSTDTSGYGQSSYSSYGQSQNTGYGTQSTPQGYGSTGGYGSSQSSQSSYGQQSSYPGYGQQPAPSSTSGSYGSSSQSSSYGQPQSGSYSQQPSYGGQQQSYGQQQSYNPPQGYGQQNQYNSSSGGGGGGGGGGNYGQDQSSMSSGGGSGGGYGNQDQSGGGGSGGYGQQDRGGRGRGGSGGGGGGGGGGYNRSSGGYEPRGRGGGRGGRGGMGGSDRGGFNKFGGPRDQGSRHDSEQDNSDNNTIFVQGLGENVTIESVADYFKQIGIIKTNKKTGQPMINLYTDRETGKLKGEATVSFDDPPSAKAAIDWFDGKEFSGNPIKVSFATRRADFNRGGGNGRGGRGRGGPMGRGGYGGGGSGGGGRGGFPSGGGGGGGQQRAGDWKCPNPTCENMNFSWRNECNQCKAPKPDGPGGGPGGSHMGGNYGDDRRGGRGGYDRGGYRGRGGDRGGFRGGRGGGDRGGFGPGKMDSRGEHRQDRRERPY
# Legend:
# [1] = tested on: 3×MBT domain of L3MBTL1; assay: Triple SILAC pull-down, 3xMBT/3xMBTD355N ratio (cytoplasmic, nuclear and chromatin fractions of 293T cells); assay type: binding, human; conditions: SILAC ratio, pull-down 3xMBT vs 3xMBTD355N; for 3xMBT/D355N UNC Heavy: experiment with UNC0638 in heavy SILAC media; for 3xMBT/D355N UNC Light: experiment with UNC0638 in light SILAC media;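 for all read-outs here: proteins quantified with MaxQuant, requiring at least two unique peptides and quantification in both label directions, normalized to the mean of proteins from a digested loading control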
# [2] = target: T1, G9a and GLP (Homo sapiens, UniProt Q96KQ7+Q9H9B1); assay: Triple SILAC pull-down after UNC0638 treatment of 293T cells, DMSO/UNC0638 ratio of protein captured by 3×MBT; assay type: cell-based; set-up: endogenous in cells; host or cells: HEK 293T; conditions: for Relative to UNC0638 UNC Heavy / Relative to UNC0638 UNC Light: SILAC ratio DMSO/UNC0638 of protein pulled down with 3xMBT; for Relative to UNC0638 UNC Heavy: UNC0638 in heavy SILAC media; for Relative to UNC0638 UNC Light: UNC0638 in light SILAC media; for Relative to UNC0638 Average: average of UNC Light and UNC Heavy experiments;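 for all read-outs here: mass spectrometry (Q-Exactive) SILAC quantitation, DMSO/UNC0638 ratio computed after subtracting 3×MBTD355N mutant pull-down background, only proteins with at least twofold 3×MBT over mutant signal considered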
# T1 sequence (Q96KQ7 2-1210 limits assumed): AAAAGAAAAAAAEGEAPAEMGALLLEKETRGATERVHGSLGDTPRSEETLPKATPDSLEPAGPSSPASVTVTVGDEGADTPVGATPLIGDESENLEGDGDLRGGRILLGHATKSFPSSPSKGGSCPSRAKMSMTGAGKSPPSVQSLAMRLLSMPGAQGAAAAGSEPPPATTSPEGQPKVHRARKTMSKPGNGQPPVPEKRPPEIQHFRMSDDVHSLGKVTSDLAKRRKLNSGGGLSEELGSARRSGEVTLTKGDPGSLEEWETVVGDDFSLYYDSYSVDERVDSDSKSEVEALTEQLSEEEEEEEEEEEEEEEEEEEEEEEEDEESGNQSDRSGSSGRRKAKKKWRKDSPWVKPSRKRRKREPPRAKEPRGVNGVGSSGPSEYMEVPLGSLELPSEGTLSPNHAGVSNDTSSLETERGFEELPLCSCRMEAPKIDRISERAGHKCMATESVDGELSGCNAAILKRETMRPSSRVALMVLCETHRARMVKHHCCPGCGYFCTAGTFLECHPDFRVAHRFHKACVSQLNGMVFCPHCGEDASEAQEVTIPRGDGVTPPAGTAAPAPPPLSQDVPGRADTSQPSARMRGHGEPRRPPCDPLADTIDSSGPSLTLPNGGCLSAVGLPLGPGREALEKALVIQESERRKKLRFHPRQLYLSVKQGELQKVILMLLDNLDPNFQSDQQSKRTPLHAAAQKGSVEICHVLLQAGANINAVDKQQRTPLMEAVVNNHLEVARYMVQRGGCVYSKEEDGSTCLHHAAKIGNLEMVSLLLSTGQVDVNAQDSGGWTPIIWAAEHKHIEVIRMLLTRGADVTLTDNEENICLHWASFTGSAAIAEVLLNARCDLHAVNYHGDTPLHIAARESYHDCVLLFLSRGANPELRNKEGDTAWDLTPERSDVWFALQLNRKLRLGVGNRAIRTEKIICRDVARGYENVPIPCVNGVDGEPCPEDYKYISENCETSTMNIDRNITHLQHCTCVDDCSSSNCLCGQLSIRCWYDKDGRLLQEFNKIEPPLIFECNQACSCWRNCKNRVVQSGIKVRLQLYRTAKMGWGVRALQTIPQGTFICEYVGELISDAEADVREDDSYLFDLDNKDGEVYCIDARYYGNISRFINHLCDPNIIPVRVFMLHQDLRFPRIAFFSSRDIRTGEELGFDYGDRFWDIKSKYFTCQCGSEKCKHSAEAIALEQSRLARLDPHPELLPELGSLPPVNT
# T1 sequence (Q9H9B1 2-1298 limits assumed): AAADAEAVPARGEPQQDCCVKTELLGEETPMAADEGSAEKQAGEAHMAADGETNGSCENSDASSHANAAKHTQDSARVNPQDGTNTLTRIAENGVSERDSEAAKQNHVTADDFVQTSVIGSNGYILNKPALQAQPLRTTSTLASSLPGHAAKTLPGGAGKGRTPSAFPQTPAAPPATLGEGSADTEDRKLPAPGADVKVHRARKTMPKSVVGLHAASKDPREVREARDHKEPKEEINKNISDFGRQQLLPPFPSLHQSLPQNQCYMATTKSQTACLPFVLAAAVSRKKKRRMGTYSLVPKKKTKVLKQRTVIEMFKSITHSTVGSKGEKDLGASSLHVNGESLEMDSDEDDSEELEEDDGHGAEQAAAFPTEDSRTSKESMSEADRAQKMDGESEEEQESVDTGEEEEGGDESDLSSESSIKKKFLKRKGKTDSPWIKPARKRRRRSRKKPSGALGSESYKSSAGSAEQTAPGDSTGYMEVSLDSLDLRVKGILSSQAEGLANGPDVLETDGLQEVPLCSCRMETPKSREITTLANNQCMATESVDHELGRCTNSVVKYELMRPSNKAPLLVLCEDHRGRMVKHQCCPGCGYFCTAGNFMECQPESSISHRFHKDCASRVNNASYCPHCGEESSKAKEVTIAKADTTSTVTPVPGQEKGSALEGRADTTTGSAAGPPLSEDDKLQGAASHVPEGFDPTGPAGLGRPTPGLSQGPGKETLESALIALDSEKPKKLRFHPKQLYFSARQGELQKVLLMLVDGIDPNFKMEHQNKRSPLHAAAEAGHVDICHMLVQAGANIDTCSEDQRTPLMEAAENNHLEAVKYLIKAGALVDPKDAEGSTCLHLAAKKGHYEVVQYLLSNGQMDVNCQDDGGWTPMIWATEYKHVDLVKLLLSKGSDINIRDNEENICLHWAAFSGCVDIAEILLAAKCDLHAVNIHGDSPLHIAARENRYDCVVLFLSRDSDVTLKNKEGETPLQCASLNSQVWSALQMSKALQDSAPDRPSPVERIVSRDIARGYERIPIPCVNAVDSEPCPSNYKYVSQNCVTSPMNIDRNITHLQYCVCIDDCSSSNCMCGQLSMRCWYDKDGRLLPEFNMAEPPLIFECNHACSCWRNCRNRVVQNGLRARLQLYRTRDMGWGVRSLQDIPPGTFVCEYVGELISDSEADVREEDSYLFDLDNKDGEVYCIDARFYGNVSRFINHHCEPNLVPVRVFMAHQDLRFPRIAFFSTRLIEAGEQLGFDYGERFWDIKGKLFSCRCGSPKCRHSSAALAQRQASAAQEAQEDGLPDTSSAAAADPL
Molecule,3xMBT/D355N UNC Heavy [1] [log base 2],3xMBT/D355N UNC Light [1] [log base 2],Relative to UNC0638 UNC Heavy [2] [log base 2],Relative to UNC0638 UNC Light [2] [log base 2],Relative to UNC0638 Average [2] [log base 2]
B1,2.62,3.04,0.34,0.05,0.19
B2,2.24,2.60,0.25,0.12,0.19
B3,3.47,3.87,0.16,0.22,0.19
B4,2.17,2.10,0.05,0.34,0.19
